According to patent publication US20220000984A1 (JIANGSU GENSCIENCES, published 2022):

B1: GLP1-L1-Fc2-L2-ST (Fc fusion)
chain: HGEGTFTSDVSSYLEEQAAKEFIAWLVKGGGGGGGSGGGGSGGGGSAVECPPCPAPPVAGPSVFLFPPKPKDTLMISRTPEVTCVVVDVSHEDPEVQFNWYVDGVEVHNAKTKPREEQFNSTFRVVSVLTVVHQDWLNGKEYKCKVSNKGLPAPIEKTISKTKGQPREPQVYTLPPSREEMTKNQVSLTCLVKGFYPSDIAVEWESNGQPENNYKTTPPMLDSDGSFFLYSKLTVDKSRWQQGNVFSCSVMHEALHNHYTQKSLSLSPGGSGGGSGGGGSGGGGSLPETG
B2: GLP1-L1-Fc2-L2-ST crosslinked with 20 kDa PEG (Fc fusion)
chain: HGEGTFTSDVSSYLEEQAAKEFIAWLVKGGGGGGGSGGGGSGGGGSAVECPPCPAPPVAGPSVFLFPPKPKDTLMISRTPEVTCVVVDVSHEDPEVQFNWYVDGVEVHNAKTKPREEQFNSTFRVVSVLTVVHQDWLNGKEYKCKVSNKGLPAPIEKTISKTKGQPREPQVYTLPPSREEMTKNQVSLTCLVKGFYPSDIAVEWESNGQPENNYKTTPPMLDSDGSFFLYSKLTVDKSRWQQGNVFSCSVMHEALHNHYTQKSLSLSPGGSGGGSGGGGSGGGGSLPETGGGAA
modifications: 20 kDa PEG on the added C-terminal GGGAA (GGGAA-PEG joined by sortase A to the T of LPET)
B3: GLP1-L1-Fc2-L2-ST crosslinked with 40 kDa PEG (Fc fusion)
chain: B2 chain
modifications: 40 kDa PEG on the added C-terminal GGGAA (GGGAA-PEG joined by sortase A to the T of LPET)

target: GLP-1 receptor (GLP-1R) on HEK293/CRE-Luc/GLP1R cells (UniProt P43220 24-463, limits assumed); assay: cell-based or functional assay

relative activity compared with dulaglutide (CRE-luciferase reporter, HEK293/CRE-Luc/GLP1R cells) | Binder
98.1% | B1
40.4% | B2
32.9% | B3
